Experimental findings from patent publication US20180334496A1 (KODIAK SCIENCES, published 2018) are described below.

Common to all, as to experiment: SPR MX96
In test [1] the target is T1, recombinant human CFD, His-tagged (human, UniProt P00746 26-253).
T1 construct: also called rhCFD-His

Test [2] deals with T2, human complement factor D purified from serum (human, UniProt P00746 26-253).
T2 construct: serum-purified (CompTech); also called hCFD-Comptech; CFD

Test [3] addresses T3, recombinant cynomolgus CFD, His-tagged (cynomolgus).
T3 construct: also called rcyCFD-His; recombinant Cyno-CFD

Test [4] has as its target T4, recombinant human CFD mutant 1 (R157A, R207A), His-tagged (human, UniProt P00746 26-253).
T4 construct: positions are linear positions in the mature protein; also called rhCFD-mut1-His; Mut1

Numbering of substitutions follows the chain as printed.

T2 sequence (P00746 26-253): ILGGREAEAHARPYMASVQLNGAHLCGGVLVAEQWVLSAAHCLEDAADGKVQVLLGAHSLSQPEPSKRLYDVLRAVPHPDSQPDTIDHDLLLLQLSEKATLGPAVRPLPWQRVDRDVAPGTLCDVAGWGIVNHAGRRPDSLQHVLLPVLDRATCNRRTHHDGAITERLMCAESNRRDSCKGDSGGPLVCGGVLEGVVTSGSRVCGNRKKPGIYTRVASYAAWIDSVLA
T1 sequence (P00746 26-253 limits assumed): as the sequence (P00746 26-253) above
T4 sequence (P00746 26-253 R182A/R232A limits assumed): as the sequence (P00746 26-253) above, with R157A, R207A counted along it

B1: KCD038 (antibody, V domains shown)
VH: EVQLQQSGPELVKPGTSMKISCKASGYSFADYTMNWVKQSHGKSLEWIGLINPYNGGTSYNQKFMGKATLTVDKSSSTAYMELLSLTSEDSAVYYCARWGTYSHNYDYAMDYWGQGTSVTVSS
VL: DVVMTQTPLSLPVSLGDQASISCRSSQSLVHSNGNTYLYWYFQKPGQSPKFLIYKVSNRFSGISDRFSGSGSGTDFTLKISRVEAEDLGVYFCSQSTHVPPFTFGSGTKLEIK
The Kd is a measure of binding affinity in units of concentration. For the molecule B1, the Kd in test [1] stood at 48 nM; in test [2], 37 nM; in test [3], 45 nM; in test [4], 84 nM.

B2: KCD039 (antibody, V domains shown)
VH: B1 VH with L11M, T16A, M34L, A97T
VL: B1 VL with P12S, F42L, F51L, S64T
Turning to B2, the dissociation constant (Kd) was found to be 43 nM in test [1], 53 nM in test [2], 39 nM in test [3] and 70 nM in test [4].

B3: KCD219 (antibody, V domains shown)
VH: QVQLQQSGPELVKPGASVKISCKASGYTFTDYYINWVKQRPGQGLEWIGWIFPGSGSTYYNEKFKGKATLTVDKSSSTAYMLLSSLPSEDSAVYFCARYGYYGSSFYAMDYWGQGTSVTVSS
VL: DIQMTQSPASLSVSVGETVTITCRASENIYSNLAWYQQKQGKSPQLLVYAATNLADGVPSRFSGSGSGTQYSLKINSLQSEDFGSYYCQHFWGSPPTFGGGTKLEIK
With B3, the Kd stood at 3 nM in test [1], 4.3 nM in test [2], 12 nM in test [3] and 3.6 nM in test [4].

B4: KCD132 (antibody, V domains shown)
VH: QVQLQQSGPELVKPGASVKISCKASGYSFTDYYINWVKQRPGQGLEWIGWIFPGSGSTYYNEKFKGKATLTVDKSSSTAYMLLSSLTSEDSAVYFCARTGYYSNLYAVDYWGQGTSVTVSS
VL: B3 VL with A50V, S85N, S94T, P96Y, I106M, K107R
B4: the Kd was 1.6 nM in test [1], 2.6 nM in test [2], 8 nM in test [3] and 1.4 nM in test [4].

B5: KCD017 (antibody, V domains shown)
VH: DVQLQESGPDLVKPSQSLSLTCTVTDYSITSGYSWHWIRQFPGNKLEWLGYIHSSGNTNYNPSLKSRFSITRDTSKNQFFLQLNSVTSEDTATYYCALHYYGSSFGWYFDVWGAGTTVTVSS
VL: DIVMTQSHKFMSTSVGDRVYITCKASQDVGTAVAWYQQTSGQSPKLLIYWASTRHTGVPDRFTGSGSGTDFTLTLSNVQSEDLADYFCQQYTSYPLTFGAGTKLELK
With B5, the Kd in test [1] was determined as 13 nM; in test [2], 7.8 nM; in test [3], 11 nM; in test [4], 10 nM.

B6: KCD050 (antibody, V domains shown)
VH: QVQLKESGPGLVAPSQSLSITCTVSGFSLNSYGVQWVRQPPGQGLEWLVVIWRDGTITYNSALKSRLSINKDNSKSQVFLKMNSLQTDDTAMYYCGRTSHYGNFNYYVMDYWGQGTAVTVSS
VL: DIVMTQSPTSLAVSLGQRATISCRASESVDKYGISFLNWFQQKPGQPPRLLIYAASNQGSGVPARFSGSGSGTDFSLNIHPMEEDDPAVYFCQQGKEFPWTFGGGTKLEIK
Turning to B6, the Kd was determined as 3.1 nM in test [1], 2 nM in test [2], 8.2 nM in test [3] and 1.9 nM in test [4].

B7: KCD033 (antibody, V domains shown)
VH: EVQLQQSGPELVKPGASMKISCTASGYSFTGYTMTWVKQSHGKNLEWIGLINPYNGGTNYNQKFKGKATLTVDKSSSIAYMELLSLTSEDSAVYYCARRHYGSNWDYWGQGTTLTVSS
VL: DIKLTQSPSSIYTSLGERVTITCKASQDINTYLSWFQQRPGKSPKTLIYRADRLVDGVPSRVRGSGSGQDYSLTISSLEYEDMGIYYCLQYDEFPYTFGGGTKLEIK
In the case of B7, the dissociation constant Kd in test [1] is 19 nM; in test [2], 11 nM; in test [3], 93 nM; in test [4], 28 nM.

B8: KCD036 (antibody, V domains shown)
VH: B7 VH with T23K, L70F, I78T, N104S
VL: B7 VL with I11M, T13A, R39K, D52N, V62F, R63S, D82E
notes: chimeric
Turning to B8, the dissociation constant (Kd) in test [1] worked out at 29 nM; in test [2], 26 nM; in test [3], 64 nM; in test [4], 80 nM.

B9: KCD110 (antibody, V domains shown)
VH: EVQLQQSGPELVKPGASVKISCKASGYSFTGYYMHWVKQSHGNILDWIGYIDPDNGVSSKNQKFTGKATVTADKSSSTAYMELRSLTSEDSAVYYCAGYYGSSWYWYFDVWGTGTTVTVSS
VL: QIVLSQSPAILSASPGEKVTMTCRASSSVSYMHWYQQKPGSSPKPWIYATSNLASGVPARFSGSGSGTSYSLTISRVEAEDAATYYCQQWSSNPYTFGGGTKLEIK
In the case of B9, the Kd stood at 2 nM in test [1], 3.7 nM in test [2], 5.3 nM in test [3] and 4.1 nM in test [4].

B10: KCD015 (antibody, V domains shown)
VH: EVQLQQSGAELVKPGASVKLSCTASGFNIKDTYMHWVKQRPEQGLEWIGRIDPANGYTEYDPKFQGKATITADTSSNTAYLQLSSLTSEDSAAYYCTSAMEFWGQGTSVTVSS
VL: QIVLTQSPAILSASPGEKVTMTCSASSSVSYIYWYQQKPRSSPRLLIYDTSNLASGVPVRFSGSGSGTSYSLTISRMEAEDAATYYCQQWSSYPFTFGGGTKLEVK
As for B10, the dissociation constant (Kd) stood at 4.5 nM in test [1], 6.2 nM in test [2], 250 nM in test [3] and 3.7 nM in test [4].

B11: KCD075 (antibody, V domains shown)
VH: QVQLLQPGAELVRPGTSVKLSCKASGYTFSNYWINWVKQRPGQGLEWIGNIYPSDSSINYNQKFKDKATLTVDKSSTTAYMQLSSPTSEDSAVYYCTGTDWYFDVWGAGTTVTVSS
VL: DIQMTQTTSSLSASLGDRVTISCSGGQGISNYLNWYQQKPDGTFKLLIYYTSTLHSGVPSRFSGSGSGTDYSLTISNLEPEDVATYYCQQYSKLPYTFGGGTKLEIK
On to B11, for which the Kd in test [1] is 2.5 nM; in test [2], 3.7 nM; in test [3], 3.2 nM; in test [4], 3.4 nM.

B12: KCD062 (antibody, V domains shown)
VH: EVKLVESGGGLVQPGGSLKLSCAASGFTFSTYIMSWVRQTPEKRLEWVAYITSGGSSTYYPDTVKGRFTISRDNAKSTLYLQMSSLKSEDTAMYYCARHAHFYAMDYWGQGTSVTVSS
VL: DIQMTQSPSSLSASLGGKVTITCKASQDINKYIAWYQHKPGKGPRLLIHYTSTLQPGIPSRFSGSGSGRDYSFSISNLEPEDIATYYCLQYDNLLYTFGGGTKLEIK
For the molecule B12, the Kd in test [1] came to 32 nM; in test [2], 24 nM; in test [3], 19 nM; in test [4] it was 62 nM.

B13: KCD064 (antibody, V domains shown)
VH: B12 VH with T31S, E46G, S56G, S77N, A100G, H101T, F102G
VL: B12 VL with K103E
As for B13, the Kd in test [1] was determined as 20 nM; in test [2], 20 nM; in test [3], 15 nM; in test [4], 37 nM.

B14: KCD139 (antibody, V domains shown)
VH: EVQLQQSGAELVRPGSSVKMSCKTSGYTFTSYGINWVKQRPGQGLEWIGYIYIANGYTENNEKFKGKAKLTSDISSSTAYMQLSSLTSEDSAIYFCARRFDYAGALDYWGQGTSVTVSS
VL: DIVLTQSPASLAVSLGQRATISCRASESVDSYGNSFMHWYQQKPGQPPKLLIHRASNLESGIPARFSGSGSRTDFTLTINPVEADDVAIYYCQQTNDDPYTFGGGTNLEIK
Turning to B14, the Kd came to 3.3 nM in test [1], 5.3 nM in test [2], 3.8 nM in test [3] and 3.5 nM in test [4].
